Tests used:
[1] = test system: trauma-induced heterotopic ossification; assay: Trauma-potentiated (drop-weight) heterotopic ossification model; assay type: in vivo; details: WT mice; after three weeks; Tfr2-ECD single dose, palovarotene or ibuprofen daily
Description: For systemic Tfr2-ECD treatment, WT mice were treated every other day with Tfr2-ECD intraperitoneally for two weeks. Mice received 250 μg Tfr2-ECD (10 mg/kg BW) per injection for the first 10 days after BMP-2/matrigel injection into the muscle and 125 μg per injection (5 mg/kg BW) for the remaining time. This experiment was performed once with 8-10 mice per group. Drop-weight HO: This experiment was performed according to Liu et al. with minor modifications^65. Female 10-12-week-old WT mice were anesthetized and placed on a ridge of a plastic container over which the right leg was bent so the femur was lying horizontally. Mice received an injection of 1 μg BMP-2 mixed in 50 μl matrigel. Afterwards, a stainless-steel ball of 16 g (16 mm diameter) was dropped from a distance of 80 cm height onto the quadriceps muscle. Mice either received a single dose of 1 μg Tfr2-ECD, which was co-injected with the BMP-2/matrigel mixture, or palovarotene (Hycultec), which was administered daily by oral gavage. Palovarotene was dissolved in DMSO and diluted 1:4 with corn oil. Mice received palovarotene at a dose of 100 μg/mouse for the first five days and 50 μg/mouse for the remainder of the experiment (days 621). One group of mice received ibuprofen via the drinking water at a dose of […] which was changed every other day^66. […]

BMPs-2, 4, 6 and 7 = assay: SPR binding of BMP ligands to Tfr2-ECD immobilized on the sensor chip
Description: For this purpose, Tfr2-ECD is immobilized on a Series S Sensor Chip C1 (GE Healthcare), by means of coupling the amino groups at 25° C. The carboxyl groups on the chip surface are activated for 7 minutes using a mixture of 196 mM 1-ethyl-3-(3-dimethylaminopropyl) carbodiimide-hydrochloride and 50 mM n-hydroxysuccinimide at a flow rate of 10 μl/min. Subsequently, 5 μg/ml Tfr2-ECD, diluted with sodium acetate buffer (pH 4.5), is injected at a flow rate of 5 μl/min up to a relative occupancy of 200 RU. Non-reacted groups are inactivated by injecting 1 M thanolamine-HCl (pH 8.5) for 7 minutes at a flow rate of 10 μl/min. In order to prepare a reference surface, the same procedure is carried out but without Tfr2-ECD being injected.
The binding assays are carried out at 37° C. at a flow rate of 30 μl/min. Each analyte is diluted by a running buffer (HBS-P, pH 7.4 together with 50 nM FeCl3). BMPs are used in a concentration of 50 nM and BMP receptors are used in a concentration of 200 nM. The binding assays are carried out by means of analyte injection for 300 s over the Tfr2-ECD surface, followed by dissociation for 1000 s. The values of the binding level are read out, relative to the baseline, 10 s before the end of the injection and are corrected with respect to the molar mass. Following the dissociation for 1000 s, the chip surface is regenerated for 60 s by means of HBS-P together with 5 M NaCl and 50 mM NaOH and is stabilized for 1000 s. The binding parameters are determined using the Biacore™ T100 evaluation software 2.03.
Tfr2-ECD, BMP-2 and BMP-4 were immobilized onto Series S Sensor Chips C1 (GE Healthcare) via its amine groups at 25° C. […]
For binding analysis, an injection of analyte for 240 s or 300 s over a Tfr2-ECD surface was followed by 1000 s dissociation. The values of the binding levels were recorded from referenced signals 10 s before the end of injection relative to baseline response. […]

BMP-2 = target: T1, BMP-2 (Homo sapiens, UniProt P12643); assay: BMP-2 competitive ELISA; assay type: binding; details: 1.5 ng/ml BMP-2 with increasing concentrations of protein
T1 sequence (P12643 283-396): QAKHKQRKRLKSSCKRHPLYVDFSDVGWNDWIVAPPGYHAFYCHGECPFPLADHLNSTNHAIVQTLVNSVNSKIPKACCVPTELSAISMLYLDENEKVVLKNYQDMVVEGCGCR
Description: In order to carry out the BMP-2-competitive ELISA, the Duo Set BMP-2 ELISA kit by R&D Systems is used.
The Duo Set BMP-2 ELISA kit from R&D Systems was used. […] After 1 h incubation at RT and extensive washing, the detection antibody was added according to the manufacturer's protocol and the amount of BMP-2 was quantified. This experiment was performed at least three independent times.

B1: Tfr2-ECD: Recombinant full-length extracellular domain (aa 103-798) of murine Tfr2, His-tagged, expressed in Sf9 insect cells (protein, listed as Mus musculus)
chain: RGSCQACGDSVLVVDEDVNPEDSGRTTLYWSDLQAMFLRFLGEGRMEDTIRLTSLRERVAGSARMATLVQDILDKLSRQKLDHVWTDTHYVGLQFPDPAHANTLHWVDADGSVQEQLPLEDPEVYCPYSATGNATGKLVYAHYGRSEDLQDLKAKGVELAGSLLLVRVGITSFAQKVAVAQDFGAQGVLIYPDPSDFSQDPHKPGLSSHQAVYGHVHLGTGDPYTPGFPSFNQTQFPPVESSGLPSIPAQPISADIADQLLRKLTGPVAPQEWKGHLSGSPYRLGPGPDLRLVVNNHRVSTPISNIFACIEGFAEPDHYVVIGAQRDAWGPGAAKSAVGTAILLELVRTFSSMVSNGFRPRRSLLFISWDGGDFGSVGATEWLEGYLSVLHLKAVVYVSLDNSVLGDGKFHAKTSPLLVSLIENILKQVDSPNHSGQTLYEQVALTHPSWDAEVIQPLPMDSSAYSFTAFAGVPAVEFSFMEDDRVYPFLHTKEDTYENLHKMLRGRLPAVVQAVAQLAGQLLIRLSHDHLLPLDFGRYGDVVLRHIGNLNEFSGDLKERGLTLQWVYSARGDYIRAAEKLRKEIYSSERNDERLMRMYNVRIMRVEFYFLSQYVSPADSPFRHIFLGQGDHTLGALVDHLRMLRADGSGAASSRLTAGLGFQESRFRRQLALLTWTLQGAANALSGDVWNIDNNF
modifications: His tag
notes: Recombinant full-length extracellular domain (aa 103-798) of murine Tfr2, His-tagged, expressed in Sf9 insect cells
- New bone formation in the muscle (trauma-induced HO, μCT) [1]: inhibited new bone formation in the muscle comparable to palovarotene
- Binding of BMPs-2, 4 and 6 to Tfr2-ECD at high salt concentrations (BMPs-2, 4, 6 and 7; 500 mM NaCl in running buffer): at a lower level
- Binding of BMPs to immobilized Tfr2-ECD compared with holo-transferrin (BMPs-2, 4, 6 and 7; BMP ligands 50 nM, 1 mg/ml holo-Tf): more avidly than holotransferrin
- Binding of BMP-2 to Tfr2 relative to that of holo-Tf (BMPs-2, 4, 6 and 7; BMP-2 vs holo-Tf): more than 10 fold
- BMP-2 binding: signal of the BMP-2 detection antibody (BMP-2): verified
- BMP-2 binding: signal of the BMP-2 detection antibody (BMP-2; listed as protein according to the invention): signal of the BMP-2 detection antibody reduced

Source: US20240199755A1, “ANTAGONISTS AND AGONISTS OF THE TRANSFERRIN RECEPTOR-2 FOR USE IN THE TREATMENT OF DISEASES OF THE BONE” (Kymab Limited, priority 2018, published 2024)
